Source: patent publication US20110312891A1, “ENAMEL MATRIX DERIVATIVE FRACTION C” (Straumann Holding AG, priority 2008, published 2011)

Experiments:
MG63 cells = test: WST-1 cell proliferation and viability assay; type: cell-based, human; conditions: 1 μg/mL; after 7 days; compared to the negative control
Experimental: Minimum Essential Medium Eagle (MEM)+10% Fetal calf serum +1% Penicilin-Streptomycin (×100)+1% Non Essential Amino Acid Solution (×100)+1% L-Glutamine (200 mM) Seeding density MG63 cells in passage 4 were seeded with a density of 10,000 cells/cm2 on 96 wells culture plates. Sampling was performed after 24 hours and 7 days in vitro.
Furthermore, the proliferation reagent WST-1 test was performed to assess cell proliferation and viability. WST-1 solution was added in a final solution of 1:10 to the monolayer culture and cells were incubated at 37° C. for a further 1 hour. The absorbance of the supernatants was measured spectrophotometrically using VersaMax micro plate reader (Molecular Devices, California, USA) at 420 nm-480 nm with a reference wavelength of 600 nm. Results are reported as optical density (OD).

osteoblasts = test: Effect of fraction C, its isoforms and synthetic amelogenin peptides on bone markers in osteoblasts; type: cell-based; conditions: for LDH activity in the culture medium: compared with fraction C and the mix of peptides (3113), slightly more toxic effect
Experimental: We have tested synthetic peptides of amelogenin (exon1, 3 and 5) of various lengths.
Fraction C, having a molecular weight of 5250.4 g/mol was used at a final concentration of 5 μg/ml (0.9 μmol/L). The peptides were used in a molar concentration similar to fraction C. WBRA001 enhanced osteocalcin and CD44 expression and secretion similar to fraction C, the smaller peptides had no effect on the bone markers in osteoblasts. 5 kDa amelogenins, isolated from EMD batch 3113 was identified to contain both; C1RP or C2RP (1-43 and 1-45 TRAP), whereas the fraction C isolated from EMD batch 9121 contains not only C1RP and C2R (1-43 and 1-45 TRAP), but 2 further, unidentified minor peaks. The effect of the different isoforms on expression of bone markers was tested on osteoblasts.

[1] = test system: MG63 human osteoblast-like cells; test: Osteoblast differentiation in confluent MG63 cultures treated for 24 hours (DNA, ALP, osteocalcin, OPG, VEGF, FGF-2); type: cell-based
Experimental: Methods: Confluent cultures of MG63 human osteoblast-like cells and normal human osteoblasts were treated with or without EMD, recombinant human amelogenin (rhAmel), Fraction A (0.01-100 μg/ml) or Fraction C (0.1-250 μg/ml) for 24 hours. Effects on DNA content and alkaline phosphatase specific activity (ALP), and osteocalcin (OCN), osteoprotegerin (OPG), vascular endothelial growth factor A (VEGF-A) and fibroblast growth factor-2 (FGF-2) levels in the conditioned media were determined.
MG63 osteoblast-like cells, originally isolated from a human osteosarcoma, were obtained from the American Type Culture Collection (Rockville, Md.). […]
MG63 Cells were cultured in Dulbecco's modified Eagle medium (DMEM) containing 10% fetal bovine serum (FBS) and 1% penicillin and streptomycin at 37° C. in an atmosphere of 5% CO2 and 100% humidity. […] The levels of osteocalcin in the conditioned media were measured using a commercially available radioimmunoassay kit (Human Osteocalcin RIA Kit, Biomedical Technologies, Stoughton, Mass.) and normalized to DNA content. […] Osteoprotegerin was measured using enzyme-linked immunosorbent assay (ELISA) kit (DY805 Osteoprotegerin DuoSet, R&D Systems, Minneapolis, Minn.). VEGF was assesseds using an ELISA kit (RnD Systems). […] The absorbance of the samples was read using a microplate reader and the results analyzed using a standard curve. […]

primary osteoblasts = test: Affymetrix gene chip analysis of primary osteoblasts, EMD versus PTH; type: cell-based, human; conditions: 24 h after stimulation; cells of two donors
Experimental: Commercially available primary human osteoblasts from both femur and tibia of different donors (NHOst cell system; Cambrex, Walkersville, Md., USA) were grown in osteoblast growth media (OGM, Cambrex). Cultured osteoblasts were exposed to hydrocortisone hemisuccinate (200 nM) and h-glycerophosphate (10 mM) (Cambrex) in ambient medium to facilitate mineralization. The phenotype of cells was characterized based on the expression levels of alkaline phosphatase (ALP), collagen type 1, osteocalcin, and CD44 (late differentiation marker), and formation of mineralization nodules.
Primary osteoblasts were cultured in T75 culture flasks and cultured after treatment for 24 h, 72 h or 7d respectively and lysed in 7 ml Trizol solution (Gibco, USA). Trizol lysates were kept at −70° C. until RNA isolation according to the manufacturer's protocols and further processing (Dep. of Medical Biochemistry, Oslo University, Norway). Double stranded cDNA and biotin labeled cRNA probes were made from 5 μg total RNA using the Superscript Choice system (Invitrogen) and the Enzo Bioarray respectively. Procedures were according to recommendations from Affymetrix. […]
To compare the effects of PTH peptides and EMD on primary osteoblasts, cells of two donors were treated synchronously and expression patterns were analysed by affymetrix gene chip analysis. […]

| Molecule | cell viability and proliferation (WST-1) (MG63 cells) | LDH activity in the culture medium (osteoblasts) | other results |
| --- | --- | --- | --- |
| C1RP: Peak 1 of Frac C; SEQ.ID.NO: 1, 43AA form MPLPPHPGHPGYINFSYEVLTPLKWYQNMIRHP-YTSYGYEPMG (MPLPPHPGHPGYINFXYEVLTPLKWYQNMIRHPYTSYGYEPMG; MOD_RES (16)..(16) Ser or Glu, wherein Ser is optionally phosphorylated; listed as Sus scrofa) [Fraction C1RP] | clear effect | higher LDH activity |  |
| MPLPP HPGHPGYINFSYEVLTPLKWYQSIRPP-OH [WBRA001] |  |  | osteocalcin and CD44 expression and secretion (osteoblasts; molar concentration similar to fraction C, 5 μg/ml (0.9 μmol/L)): enhanced |
| C2RP: Peak 2 of Frac C; SEQ.ID.NO: 2, 45AA form MPLPPHPGHPGYINFSYEVLTPLKWYQNMIRHP-YTSYGYEPMGGW (MPLPPHPGHPGYINFXYEVLTPLKWYQNMIRHPYTSYGYEPMGGW; MOD_RES (16)..(16) Ser or Glu, wherein Ser is optionally phosphorylated; listed as Sus scrofa) [Fraction C2RP] | clear effect | higher LDH activity |  |
| rhAmel: recombinant human amelogenin over-expressed in Escherichia Coli (protein, UniProt Q99217 17-191, looked up) Amelogenin, X isoform: MPLPPHPGHPGYINFSYEVLTPLKWYQSIRPPYPSYGYEPMGGWLHHQIIPVLSQQHPPTHTLQPHHHIPVVPAQQPVIPQQPMMPVPGQHSMTPIQHHQPNLPPPAQQPYQPQPVQPQPHQPMQPQPPVHPMQPLPPQPPLPPMFPMQPLPPMLPDLTLEAWPSTDKTKREEVD |  |  | concentration of maximal increases in osteocalcin ([1]; FIG. 4): 1 µg/mL; osteocalcin production (dose response) ([1]; FIG. 4, N=6 cultures per variable, p<0.05 v. control): biphasic increase |
| PTH: PTH peptides compared with EMD on primary osteoblasts (protein, UniProt P01270 32-115, looked up, Parathyroid hormone, PTH peptides compared with EMD on primary osteoblasts) Parathyroid hormone: SVSEIQLMHNLGKHLNSMERVEWLRKKLQDVHNFVALGAPLAPRDAGSQRPRKKEDNVLVESHEKSLGEADKADVNVLTKAKSQ |  |  | genes more than 2-fold changed in the same direction with both EMD and PTH from non-treated controls (primary osteoblasts): 254 genes |
